This data set has as its system MS2 coat protein. Nature of the data set: apparent KD of MS2 coat protein; designed switch direction (-1 OFF switch, 1 ON switch): 1; higher = weaker reporter binding. Put shortly:
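The apparent KD reported per design is the median over clusters of curve fits to normalised cluster fluorescence. The RNA switches were transcribed on Illumina chips by stalled E. coli RNA polymerase. SNAP-549-labelled MS2 coat protein was titrated from 0.7 or 1.5 nM, doubling up to 3 µM, in Tris-HCl pH 7.5 buffer containing KCl, MgCl2, BSA, DTT, tRNA and Tween-20, with no input, 200 uM small-molecule ligand, or an oligonucleotide input.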

The mark [1] stands for this setting: input ligand: microRNA oligo, concentration not stated.
Setting [2] is: Eterna round: R95, input ligand: FMN 200 uM.
[3] abbreviates: Eterna round: R95, input ligand: microRNA oligo, concentration not stated.
The mark [4] stands for this setting: Eterna round: R95, input ligand: none.

As to “GAGAGAUGAUUAGGAUAUACGGUGAUAAUGAUAGUAGAAGGAAUUGACAUGAGGAUCACCCAUGUGGGAAUAAUCCAGAGAGAG [Parity 22 - Jieux - Same State NG 1] (Eterna round: R96, puzzle: Same State NG 1)”, the “apparent KD of MS2 coat protein” value came to 100 nM (input ligand: FMN 200 uM), 127 nM under setting [1] and 162 nM (input ligand: none).
In the case of “GAGGAUGAUUUACAGGAUAUAUAGGAGAUGACAUGAGGAUCACCCAUGUAAGAGAGAGGAGGGAGAUAGAAGGGUAAGGGAUGUG [JR_SS2_Sub42] (puzzle: Same State 2)”, the “apparent KD of MS2 coat protein” value was found to be 44.3 nM under setting [2], 42.2 nM under setting [3] and 59.5 nM under setting [4].
Regarding “GAGGGCGGAAACAACAUGAGGAUCACCCAUGUUGCCGAAAGGCAGGAUAUCCGGCGAAAGCAGAAGGAGAAGGGUCGAAAAGAA [AK SSNG3-V2-41] (Eterna round: R96, puzzle: Same State NG 3)”, the “apparent KD of MS2 coat protein” value runs as follows: (input ligand: FMN 200 uM) 20.7 nM; under setting [1], 20 nM; (input ligand: none) 24.1 nM.
As to “GAGUAGUUAAAAGGAUAUUGAUUAUUGUAGGAUCAAGAAGGUUUUAACAUGAGGAUCACCCAUGUAGGACUAUUCCUGUGAAAA [Parity 92 - Jieux - Same State NG 1] (Eterna round: R96, puzzle: Same State NG 1)”, the “apparent KD of MS2 coat protein” value under setting [1] was 10.9 nM.
Take “GAGUAGUUAAAAGGAUAUUGAUUAUUGUAGGAUCAAGAAGGUUUUAACAUGAGGAUCACCCAUGUAGGACUAUUCCUGUGUAUC [Parity 90 - Jieux - Same State NG 1] (Eterna round: R96, puzzle: Same State NG 1)”: under setting [1], the “apparent KD of MS2 coat protein” value came out at 12 nM.
Turning to “GAGUAGUUGAAAGGAUAUGCAUUGUUAUAGAAUGCAGAAGGUUCUAACAUGAGGAUCACCCAUGUAGGACUAUUCCUGUGUAUC [Parity 80 - Jieux - Same State NG 1] (Eterna round: R96, puzzle: Same State NG 1)”, the “apparent KD of MS2 coat protein” value under setting [1] was 7.83 nM.
Take “GAGUAGUUGAAAGGAUAUUGAUUAUUGUAGGAUCAAGAAGGUUCUAACAUGAGGAUCACCCAUGUAGGACUAUUCCUGUGUAUC [Parity 89 - Jieux - Same State NG 1] (Eterna round: R96, puzzle: Same State NG 1)”: under setting [1], the “apparent KD of MS2 coat protein” value came out at 8.63 nM.
In the case of “GAGUAGUUGGGAGGAUAUGCAUUGUUAUAGAAUGCAGAAGGUUUUAACAUGAGGAUCACCCAUGUAGGACUAUUCCUGUGUAUC [Parity 71 - Jieux - Same State NG 1] (Eterna round: R96, puzzle: Same State NG 1)”, the “apparent KD of MS2 coat protein” value runs as follows: (input ligand: FMN 200 uM) 12.9 nM; under setting [1], 11.9 nM; (input ligand: none) 15.6 nM.
In the case of “GAGUGGAAGUAAGGAUAUAUAAUGAUAAUCACAGUAGAAGGUACUAACAUGAGGAUCACCCAUGUAGGACUAUACCAGAGAGGG [Parity 44 - Jieux - Same State NG 1] (Eterna round: R96, puzzle: Same State NG 1)”, the “apparent KD of MS2 coat protein” value under setting [1] is 12.3 nM.
On to “GAGUGGCAGUUAGGAUAUGUAGUGAUAAUGAUAACAGAAGGAACAGACAUGAGGAUCACCCAUGUAGGACUAAUCCAGAGAGAG [Parity 35 - Jieux - Same State NG 1] (Eterna round: R96, puzzle: Same State NG 1)”, for which the “apparent KD of MS2 coat protein” value (input ligand: FMN 200 uM) amounted to 26.2 nM, the “apparent KD of MS2 coat protein” value under setting [1] amounted to 25.7 nM and the “apparent KD of MS2 coat protein” value (input ligand: none) was found to be 34.2 nM.
For the sequence “GAGUGGCGGUUAGGAUAUACAGUGAUAAUGAUAGUAGAAGGAACUGACAUGAGGAUCACCCAUGUAGGACUAAUCCAGAGAGAG [Parity 31 - Jieux - Same State NG 1] (Eterna round: R96, puzzle: Same State NG 1)”, the “apparent KD of MS2 coat protein” value was found to be 43.6 nM (input ligand: FMN 200 uM), 21.7 nM under setting [1] and 33.7 nM (input ligand: none).
With “GAUCGUUUGAUAGGAUAUCGCUAUACAUGAGGAUCACCCAUGUUUACCACGCUGGUUUUUCAUACCGAGAAGGAUUCUGAUGAC [salish99_SSNG02_r04_007] (Eterna round: R96, puzzle: Same State NG 2)”, the “apparent KD of MS2 coat protein” value worked out at 21.5 nM (input ligand: FMN 200 uM), 15.5 nM under setting [1] and 26.6 nM (input ligand: none).
As to “GAUUAACAUGAGGAUCACCCAUGUCGUUUUAUGGGAGGAUAUACGUGGACCGUAGUCCGCGUAGAAGGCCUAAUUG [JL-ss1-3.23 janelle mod] (puzzle: Same State 1)”, the “apparent KD of MS2 coat protein” value under setting [3] amounted to 97.3 nM.
On to “GCAUUACAUGAGGAUCACCCAUGUCUCUAAAGUCGAGGAUAUGGGCAGGUUAUAUCCGAACCAGAAGGCGAAUUGC [SS1 Teenbexe 10] (puzzle: Same State 1)”, for which the “apparent KD of MS2 coat protein” value amounted to 138 nM under setting [2], 244 nM under setting [3] and 198 nM under setting [4].
“GCCAACUUAUGAGGAUAUGGCACCUUAUUGGUGCCAGAAGGCAUGUGAAUUCACAUGAGGAUCACCCAUGUAUUAUAGUUGGCA [Fiskers NG1ss - 20] (Eterna round: R96, puzzle: Same State NG 1)”: the “apparent KD of MS2 coat protein” value (input ligand: FMN 200 uM) is 32.2 nM, the “apparent KD of MS2 coat protein” value under setting [1] came to 221 nM and the “apparent KD of MS2 coat protein” value (input ligand: none) worked out at 356 nM.
As to “GCCCAUAGUAUAUGGAUACAAGCUUUUUGACAUGAGGAUCACCCAUGUACUCGUCUUAUGUGCAGUCCGUAGACUGC [JL-shm-2.20 Brourd mod] (puzzle: Sensor for hsa-mir-208a)”, the “apparent KD of MS2 coat protein” value amounted to 26.8 nM under setting [2] and 15.8 nM under setting [3].
In the case of “GCCGCAAGGGCAGGAUAUGGGUCCAGAGUGCAAAUGCACUCCGGUACAUGAGGAUCACCCAUGUCCCAGAAGGGCCCAAGCGGC [Bilaatdi] (Eterna round: R96, puzzle: Same State NG 2)”, the “apparent KD of MS2 coat protein” value amounted to 12.8 nM (input ligand: FMN 200 uM), 144 nM under setting [1] and 163 nM (input ligand: none).
Regarding “GCCGCGUUUCGCGCCUACAUGAGGAUCACCCAUGUUUGUAGGCAGGAUAUCGCCCGCUUUGCGGGCGAGAAGGGCUGUUGUGGC [salish99_SSNG3_R04_020] (Eterna round: R96, puzzle: Same State NG 3)”, the “apparent KD of MS2 coat protein” value stood at 59 nM (input ligand: FMN 200 uM), 38.8 nM under setting [1] and 55.5 nM (input ligand: none).
On the same counts, the results for “GCCGCGUUUCGCGCCUACAUGAGGAUCACCCAUGUUUGUAGGCAGGAUAUCGUCCGCUCUGCGGGCGAGAAGGGCUGUUGUGGG [salish99_SSNG3_R04_023] (Eterna round: R96, puzzle: Same State NG 3)” are 214 nM, 139 nM and 179 nM.
In the case of “GCCGGCUGGUGAGGAUAUGGCGCCUUGUUGGUGCCAGAAGGCAUGUCAAUUGACAUGAGGAUCACCCAUGUGUUGUCGUUGGCG [salish99_SSNG1_r04_611] (Eterna round: R96, puzzle: Same State NG 1)”, the “apparent KD of MS2 coat protein” value by setting is: (input ligand: FMN 200 uM) 808 nM; under setting [1], 110 nM; (input ligand: none) 459 nM.
Turning to “GCGAAAUGAUGUGACAUGAGGAUCACCCAUGUAACCUCAUGUAAGGAUAUCGGAAAAAAAAAAACCGAGAAGGUAUGGUCACGC [AK SSNG3-V2-27.1] (Eterna round: R96, puzzle: Same State NG 3)”, the “apparent KD of MS2 coat protein” value reads like this: (input ligand: FMN 200 uM) 124 nM; under setting [1], 86.4 nM; (input ligand: none) 216 nM.
